Reference: FireProtDB (doi:10.1110/ps.03176803)

B1: Guanyl-specific ribonuclease Sa, P05798 (parent)
chain: DVSGTVCLSALPPEATDTLNLIASDGPFPYSQDGVVFQNRESVLPTQSYGYYHEYTVITPGARTRGTRRIITGEATQEDYYTGDHYATFSLIDQTC

Variants of: B1
Conditions: Kitasatospora aureofaciens, Thermal, DSC, reversible: yes (90-95%), structure 1RGG, whole UniProt chain shown
[1] = pH 5.5, 55.6 °C, sodium acetate potassium chloride 0.01 M 0.05 M
[2] = pH 5.5, sodium acetate potassium chloride 0.01 M 0.05 M

Variant	ddG of mutation (higher = less stable) [1]	Tm [2]	change of melting temperature, mutant - wild type (higher = more stable) [2]	unfolding enthalpy (calorimetric) [2]	unfolding enthalpy (van 't Hoff) [2]	ddG of mutation (higher = less stable) (pH 7, 49 °C, PIPES 0.03 M)	Tm (pH 7, PIPES 0.03 M)	change of melting temperature, mutant - wild type (higher = more stable) (pH 7, PIPES 0.03 M)	unfolding enthalpy (calorimetric) (pH 7, PIPES 0.03 M)	unfolding enthalpy (van 't Hoff) (pH 7, PIPES 0.03 M)	Tm (pH 7, PIPES 0.3 M)	change of melting temperature, mutant - wild type (higher = more stable) (pH 7, PIPES 0.3 M)	unfolding enthalpy (calorimetric) (pH 7, PIPES 0.3 M)	unfolding enthalpy (van 't Hoff) (pH 7, PIPES 0.3 M)
DVSGTVCLSALPPEATDTLNLIASDGPFPYSQDGVVFQNRESVLPTQSYGYYHEYTVITPGARTAGTRRIITGEATQEDYYTGDHYATFSLIDQTC [R65A]	1.3 kcal/mol	51.1 °C	-4.5 °C	81 kcal/mol	78 kcal/mol	1 kcal/mol	45.6 °C	-3.4 °C	81 kcal/mol	90 kcal/mol				
DVSGTVCLSALPPEATDTLNLIASDGPFPYSQDGVVFQNRESVLPTQSYGYYHEYTVITPGARTRGTRRIITGKATQEDYYTGDHYATFSLIDQTC [E74K]	-0.1 kcal/mol	56 °C	0.4 °C	103 kcal/mol	99 kcal/mol	-0.9 kcal/mol					52.1 °C	3.1 °C	101 kcal/mol	113 kcal/mol
DVSGTVCLSALPPEATDTLNLIASDGPFPYSQDGVVFQNRKSVLPTQSYGYYHEYTVITPGARTRGTRRIITGEATQEDYYTGDHYATFSLIDQTC [E41K]	1.5 kcal/mol	50.5 °C	-5.1 °C	97 kcal/mol	101 kcal/mol	0.7 kcal/mol	46.5 °C	-2.5 °C	90 kcal/mol	100 kcal/mol				
DVSGTVCLSALPPEATDTLNLIASDGPFPYSQDGVVFQNRESVLPTQSYGYYHQYTVITPGARTRGTRRIITGEATQEDYYTGDHYATFSLIDQTC [E54Q]	2.3 kcal/mol					1.7 kcal/mol	43.1 °C	-5.9 °C	81 kcal/mol	87 kcal/mol				
DVSGTVCLSALPPEATDTLNLIASDGPFPYSQDGVVFANRESVLPTQSYGYYHEYTVITPGARTRGTRRIITGEATQEDYYTGDHYATFSLIDQTC [Q38A]	-0.4 kcal/mol					-1 kcal/mol	52.5 °C	3.5 °C	109 kcal/mol	110 kcal/mol				
DVSGTVCLSALPPEATDTLNLIASDGPFPYSQDGVVFQNRESVLPTQSYGYYHEYTVITPGARTRGTRRIITGEATQEDYYTGDQYATFSLIDQTC [H85Q]	0 kcal/mol	55.5 °C	-0.1 °C	94 kcal/mol	105 kcal/mol	0 kcal/mol	49.1 °C	0.1 °C	90 kcal/mol	89 kcal/mol				
